# Laboratory results from article PMC3950950, “Fluorescent sensors for activity and regulation of the nitrate transceptor CHL1/NRT1.1 and oligopeptide transporters” (eLife, 2014).
# Substrate: O=[N+]([O-])O
# Assay: fluorescence response (donor quenching) of sensor in yeast, plate reader
# Format: cell-based, Arabidopsis thaliana
# Conditions: 50 mM MES pH 5.5, monophasic low-affinity response, excitation 428 nm
protein,measurement,value
"NiTrac1 (CHL1/NRT1.1/NPF6.3 fusion) (Arabidopsis thaliana; T101A) (protein, full-length ORF between N-terminal Aphrodite t9 (yellow FP) and C-terminal mCerulean (pDRFlip30); expressed in yeast BJ5465; intact cells) MSLPETKSDDILLDAWDFQGRPADRSKTGGWASAAMILCIEAVERLTTLGIGVNLVTYLTGTMHLGNATAANTVTNFLGTSFMLCLLGGFIADTFLGRYLAIAIFAAIQATGVSILTLSTIIPGLRPPRCNPTTSSHCEQASGIQLTVLYLALYLTALGTGGVKASVSGFGSDQFDETEPKERSKMTYFFNRFFFCINVGSLLAVTVLVYVQDDVGRKWGYGICAFAIVLALSVFLAGTNRYRFKKLIGSPMTQVAAVIVAAWRNRKLELPADPSYLYDVDDIIAAEGSMKGKQKLPHTEQFRSLDKAAIRDQEAGVTSNVFNKWTLSTLTDVEEVKQIVRMLPIWATCILFWTVHAQLTTLSVAQSETLDRSIGSFEIPPASMAVFYVGGLLLTTAVYDRVAIRLCKKLFNYPHGLRPLQRIGLGLFFGSMAMAVAALVELKRLRTAHAHGPTVKTLPLGFYLLIPQYLIVGIGEALIYTGQLDFFLRECPKGMKGMSTGLLLSTLALGFFFSSVLVTIVEKFTGKAHPWIADDLNKGRLYNFYWLVAVLVALNFLIFLVFSKWYVYKEKRLAEVGIELDDEPSIPMGH",Km,3.5 ± 3.7 mM
